Test results from patent US20240132859A1, “MODIFIED DEHALOGENASE WITH EXTENDED SURFACE LOOP REGIONS” (Promega Corporation, priority 2022, published 2024).
Substitutions are numbered along the chain they refer to. Numbers in names are those of the source. Blank lines part the entries; values can stand above or below the molecule they belong to.

Key:
[1] = test system: HeLa cells expressing HiBiT-tagged GAPDH; test: Complementation-based chimeras transfected into genome edited HeLa cells expressing HiBiT-tagged GAPDH: expression, brightness, BRET; format: cell-based
Method: FIG. 23 A-G. Characterization of transiently expressed complementation-based chimeras incorporating flexible linkers and LgBiT+4 circularly permuted at two alternative sites (i.e., 67/68 or 49/50). Constructs encoding the chimeras were transfected into genome edited HeLa cells expressing HiBiT-tagged GAPDH. Cells were evaluated for expression, brightness, and efficiency of intramolecular BRET to a bound TMR ligand. (A) Structure of the HALOTAG-cpLGBIT chimeras. (B) Expression levels. Lysates from cells labeled with 1 μM HaloTag-TMR ligand were resolved on SDS-PAGE and scanned on a fluorescent imager. Expression levels quantitated using Image J software were normalized to the expression of HaloTag178-cpLgBIT+4 67/68-179. (C) Total luminescence from cells treated with 20 μM fluorofurimazine. (D) Intramolecular BRET efficiencies for cells treated with 500 nM HaloTag-TMR ligand.

[2] = Total luminescence (brightness) of purified fusions and chimeras treated with fluorofurimazine; format: biochemical; settings: 6 nM chimeras complemented with 60 nM VS-HiBiT; compared with HT-178(L1-3)cpLgBiT+4 67/68-179
Source text: (§1) FIG. 9A-D. Characteristics of HaloTag-NLuc fusions and chimeras generated by insertion of circularly-permuted NanoLuc (cpNLuc), circularly-permuted thermostable NanoLuc (cptsNLuc), and circularly-permuted thermostable NanoLuc with a point mutation, F164C (cptsNLuc(F164C)) into loops 165 and 180. Fusion and chimeras were expressed in E. coli, purified, and compared for binding kinetics of a chloroalkane-TMR ligand, brightness of luminescence, and efficiency of intramolecular BRET to a bound TMR ligand. (A) Chimera structures (B) Binding kinetics of 2.5 nM chloroalkane-TMR to 20 nM fusions, and chimeras monitored via fluorescent polarization (C) Total luminescence for 6 nM fusions, and chimeras treated with 20 μM fluorofurimazine (D) Intramolecular BRET efficiencies for 6 nM fusions, and chimeras that were labeled with 5-fold molar excess of chloroalkane-TMR and treated with 20 μM fluorofurimazine.
(§2) FIG. 13A-B. Luminescence and BRET efficiencies of HaloTag-LgBiT fusions, and chimeras generated by insertion of LgBiT and circularly-permuted LgBiT (cpLgBiT) into loop 180. […]
(§3) FIG. 19 A-E. Biochemical characterization of chimeras generated by inserting a circularly permuted NanoLuc to HaloTag's loops 180 and 194/195. […] (C) Binding kinetics of 2.5 nM HaloTag-TMR ligand to 20 nM chimeras monitored via fluorescent polarization. […]

[3] = Intramolecular BRET efficiency of purified fusions and chimeras to a bound TMR ligand; format: biochemical; settings: 6 nM chimeras complemented with 60 nM VS-HiBiT; compared with HT-178(L1-3)cpLgBiT+4 67/68-179
Source text: as §1, §2, §3

VS-HiBiT peptide = test: Binding affinity of complementation-based chimeras to VS-HiBiT peptide; settings: compared with HT-178(L1-3)cpLgBiT+4 67/68-179
Method: FIG. 22 A-I. Biochemical characterization of complementation-based chimeras incorporating flexible linkers and LgBiT+4 circularly permuted at two alternative sites (i.e., 67/68 or 49/50). (A) Structure of the HALOTAG-cpLGBIT chimeras. (B-C) Influence of flexible linkers on binding kinetics of 2.5 nM HaloTag-TMR ligand to 20 nM chimeras, which were complemented with 200 nM VS-HiBiT. (C-D) Influence of flexible linkers on binding affinity to a VS-HiBiT peptide. (E-F) Total luminescence for 6 nM chimeras complemented with 60 nM VS-HiBiT and treated with 20 μM fluorofurimazine. (G-I) Intramolecular BRET efficiencies for 6 nM chimeras complemented with 60 nM VS-HiBiT and covalently labeled with HaloTag-TMR ligand.
FIG. 25 A-E. Influence of additional LgTrip mutations on biochemical properties of the lead complementation-based chimera HaloTag178(L1-3)-cpLgBiT+4-179. Annotations of the additional mutations are based on a full length non disrupted NanoLuc protein (A) Structure of the HALOTAG-cpLGBIT chimeras (B) Influence of mutations on binding affinities to the VS-HiBiT peptide. (C) Influence of mutations on brightness and efficiency of intramolecular BRET to a bound TMR ligand for 6 nM chimeras complemented with 60 nM VS-HiBiT. (D-E) Binding kinetics of 2.5 nM HaloTag-TMR ligand to 20 nM or 80 nM chimeras, which were complemented with 200 nM or 800 nM VS-HiBiT, respectively.
FIG. 26 A-C. […]

[4] = mammalian cells, among the tested HALOTAG-cpLGBIT chimeras

B1: HaloTag-178-(L1-3)cpLgBiT+4 67/68 (E4D, Q42M, M106K, T144D)-179: SEQ ID NO: 93 (protein)
chain: GSEIGTGFPFDPHYVEVLGERMHYVDVGPRDGTPVLFLHGNPTSSYVWRNIIPHVAPTHRCIAPDLIGMGKSDKPDLGYFFDDHVRFMDAFIEALGLEEVVLVIHDWGSALGFHWAKRNPERVKGIAFMEFIRPIPTWDEWPEFARETFQAFRTTDVGRKLIIDQNVFIEGTLPMGVVGGSSADQMAQIEEVFKVVYPVDDHHFKVILPYGTLVIDGVTPNKLNYFGRPYEGIAVFDGKKITVTGTLWNGNKIIDERLIDPDGSMLFRVTINSGGTGGSGGTGGSMVFTLDDFVGDWEQTAAYNLDQVLEQGGVSSLLQNLAVSVTPIMRIVRSGENALKIDIHVIIPYEGLRPLTEVEMDHYREPFLNPVDREPLWRFPNELPIAGEPANIVALVEEYMDWLHQSPVPKLLFWGTPGVLIPPAEAARLAKSLPNCKAVDIGPGLNLLQEDNPDLIGSEIARWLSTLEISG
expression ([1]; genome-edited HeLa cells expressing HiBiT-tagged-GAPDH): highest | BRET efficiency [1, 4]: highest | brightness [1, 4]: highest

binding affinity to VS-HiBiT (VS-HiBiT peptide): significantly higher affinity
B2: HaloTag-178-(L1-3)cpLgBiT+4 67/68 (E4D, Q42M, M106K, T144D, R112H, V127T, K123E)- 179: SEQ ID NO: 106 (protein)
chain: B1 chain with R228H, K239E, V243T
brightness [2]: similar | BRET efficiency [3]: similar
